We go through four molecules from patent US20210380679A1 (INHIBRX BIOSCIENCES, published 2021).

Experiment [1] has as its target T1, human DLL3 (Delta-like ligand 3) (human, UniProt Q9NYJ7 27-618).
T1 construct: endogenous on SHP-77 cells; also called cell-surface DLL3
T1 sequence: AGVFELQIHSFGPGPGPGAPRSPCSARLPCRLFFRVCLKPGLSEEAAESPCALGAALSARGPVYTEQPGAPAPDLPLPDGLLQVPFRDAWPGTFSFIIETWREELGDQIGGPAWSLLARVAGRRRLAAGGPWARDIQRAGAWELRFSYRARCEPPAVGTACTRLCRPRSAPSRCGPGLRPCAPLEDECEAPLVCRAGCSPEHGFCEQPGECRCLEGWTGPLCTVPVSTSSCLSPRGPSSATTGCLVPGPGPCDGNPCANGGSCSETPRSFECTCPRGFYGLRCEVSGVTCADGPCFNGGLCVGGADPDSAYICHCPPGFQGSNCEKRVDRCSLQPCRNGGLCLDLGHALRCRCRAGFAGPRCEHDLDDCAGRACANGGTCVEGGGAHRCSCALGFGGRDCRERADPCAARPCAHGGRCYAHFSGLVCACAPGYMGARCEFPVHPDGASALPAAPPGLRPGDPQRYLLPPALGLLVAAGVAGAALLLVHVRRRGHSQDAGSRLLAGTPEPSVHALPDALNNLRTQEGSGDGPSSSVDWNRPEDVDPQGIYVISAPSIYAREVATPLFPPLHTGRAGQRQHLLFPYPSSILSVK
The experiment can be described thus: flow cytometry of secreted sdAb-Fc on SHP-77 cells. On the technique in general: A flow cytometer gives signals particle by particle.

Experiment [2] deals with T2, CD3 on the surface of T cells (human, UniProt P07766 23-207).
T2 construct: whole, on cells; multi-chain complex; also called CD3 epsilon
T2 sequence (P07766 23-207): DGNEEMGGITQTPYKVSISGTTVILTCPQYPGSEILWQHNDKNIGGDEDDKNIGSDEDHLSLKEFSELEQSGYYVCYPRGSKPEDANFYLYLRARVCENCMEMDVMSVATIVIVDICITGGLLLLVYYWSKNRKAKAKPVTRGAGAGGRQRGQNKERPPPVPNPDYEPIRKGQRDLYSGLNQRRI
Put plainly: flow cytometry, construct titrated on isolated primary T cells, fluorophore-conjugated anti-human IgG Fc secondary. As for the experimental part: (§1) Binding of exemplary multispecific polypeptide constructs of the disclosure containing an antigen-binding domain directed against DLL3 to CD3 on the surface of primary T cells and to DLL3 expressing cells (SHP-77) was assessed by flow cytometry. […] These binding assays were conducted by flow cytometry, wherein bound constructs were detected using a fluorophore-conjugated anti-human IgG Fc secondary antibody.

Experiment [3] deals with T1, human DLL3 (Delta-like ligand 3). The experiment can be described thus: flow cytometry, construct titrated on SHP-77 cells (DLL3 positive), fluorophore-conjugated anti-human IgG Fc secondary. As for the experimental part: as §1

B1: 6A1 (Fc fusion)
VHH: QVQLVQSGGGLVQAGGSLRLSCAASGFSLDDYTIGWFRQAPGKEREGVSCISSSGGSTVHADSVKGRFTISRDNAKNTVWLQMNSLKPEDTAVYYCATWCGVATMTEDLPFDYWGQGTLVTVKP
notes: tested as VHH-human Fc; Fc not specified
In the case of B1, the binding result in experiment [1] was “binds”.

B2: cx5352 (bispecific antibody)
chain 1: EVQLVESGGGEVQPGGSLRLSCAASGSIFSINAMGWYRQAPGKQRELVAGFTGDTNTIYAESVKGRFTISRDNAKNTVYLQMSSLRAEDTAVYYCAADVQLFSRDYEFYWGQGTLVTVKPDKTHTCPPCPAPGGPSVFLFPPKPKDTLMISRTPEVTCVVVDVSHEDPEVKFNWYVDGVEVHNAKTKPREEQYNSTYRVVSVLTVLHQDWLNGKEYKCKVSNKALPAPIEKTISKAKGQPREPQVYTLPPCRDELTKNQVSLWCLVKGFYPSDIAVEWESNGQPENNYKTTPPVLDSDGSFFLYSKLTVDKSRWQQGNVFSCSVMHEALHNHYTQKSLSLSPTGGGGGSGGGGGSGGGGGSEVQLVESGGGLVQPGGSLRLSCAASGFTFNTYAMNWVRQAPGKCLEWVARIRSKYNNYATYYADSVKGRFTISRDDAKNTLYLQMSSLRAEDTAVYYCVRHGNFGNSYVSWFAYWGQGTLVTVKPEVQLVESGGGEVQPGGSLRLSCGPSEIITSDKSMGWVRQAPGKQRNLVAGISNVGSTNYAQSVKGRFTISRDNAKNTVYLQMSSLRAEDTAVYYCYARDFENEYWGQGTLVTVKP
chain 2: DKTHTCPPCPAPGGPSVFLFPPKPKDTLMISRTPEVTCVVVDVSHEDPEVKFNWYVDGVEVHNAKTKPREEQYNSTYRVVSVLTVLHQDWLNGKEYKCKVSNKALPAPIEKTISKAKGQPREPQVCTLPPSRDELTKNQVSLSCAVKGFYPSDIAVEWESNGQPENNYKTTPPVLDSDGSFFLVSKLTVDKSRWQQGNVFSCSVMHEALHNRYTQKSLSLSPTGGGGGSGGGGGSGGGGGSQAVVTQEPSLTVSPGGTVTLTCGSSTGAVTTSNYANWVQQKPGQAFRGLIGGTNKRAPGVPARFSGSLLGGKAALTISGAQPEDEADYYCALWYSNHWVFGCGTKLEIKEVQLLESGGGEVQPGGSLRLSCAASGFSFSINAMGWYRQAPGKRREFVAAIESGRNTVYAESVKGRFTISRDNAKNTVYLQMSSLRAEDTAVYYCGLLKGNRVVSPSVAYWGQGTLVTVKP
With B2, the binding result is given as “no binding (tested: about 67 nM)” in experiment [2] and “binds” in experiment [3].

B3: cx5801 (bispecific antibody)
chain 1: DKTHTCPPCPAPGGPSVFLFPPKPKDTLMISRTPEVTCVVVDVSHEDPEVKFNWYVDGVEVHNAKTKPREEQYNSTYRVVSVLTVLHQDWLNGKEYKCKVSNKALPAPIEKTISKAKGQPREPQVYTLPPCRDELTKNQVSLWCLVKGFYPSDIAVEWESNGQPENNYKTTPPVLDSDGSFFLYSKLTVDKSRWQQGNVFSCSVMHEALHNHYTQKSLSLSPTGGGGGSGGGGGSGGGGGSEVQLVESGGGLVQPGGSLRLSCAASGFTFNTYAMNWVRQAPGKCLEWVARIRSKYNNYATYYADSVKGRFTISRDDAKNTLYLQMSSLRAEDTAVYYCVRHGNFGNSYVSWFAYWGQGTLVTVKPEVQLVESGGGEVQPGGSLRLSCGPSEIITSDKSMGWVRQAPGKQRNLVAGISNVGSTNYAQSVKGRFTISRDNAKNTVYLQMSSLRAEDTAVYYCYARDFENEYWGQGTLVTVKP
chain 2: DKTHTCPPCPAPGGPSVFLFPPKPKDTLMISRTPEVTCVVVDVSHEDPEVKFNWYVDGVEVHNAKTKPREEQYNSTYRVVSVLTVLHQDWLNGKEYKCKVSNKALPAPIEKTISKAKGQPREPQVCTLPPSRDELTKNQVSLSCAVKGFYPSDIAVEWESNGQPENNYKTTPPVLDSDGSFFLVSKLTVDKSRWQQGNVFSCSVMHEALHNRYTQKSLSLSPTGGGGGSGGGGGSGGGGGSQAVVTQEPSLTVSPGGTVTLTCGSSTGAVTTSNYANWVQQKPGQAFRGLIGGTNKRAPGVPARFSGSLLGGKAALTISGAQPEDEADYYCALWYSNHWVFGCGTKLEIKEVQLLESGGGEVQPGGSLRLSCAASGFSFSINAMGWYRQAPGKRREFVAAIESGRNTVYAESVKGRFTISRDNAKNTVYLQMSSLRAEDTAVYYCGLLKGNRVVSPSVAYWGQGTLVTVKP
notes: monovalent for DLL3; junction linkers not placed
For the molecule B3, the binding result in experiment [2] is on record as “no binding (tested: about 67 nM)”; in experiment [3], “binds”.

B4: cx5800 (bispecific antibody)
chain 1: EVQLVESGGGEVQPGGSLRLSCAASGSIFSINAMGWYRQAPGKQRELVAGFTGDTNTIYAESVKGRFTISRDNAKNTVYLQMSSLRAEDTAVYYCAADVQLFSRDYEFYWGQGTLVTVKPDKTHTCPPCPAPGGPSVFLFPPKPKDTLMISRTPEVTCVVVDVSHEDPEVKFNWYVDGVEVHNAKTKPREEQYNSTYRVVSVLTVLHQDWLNGKEYKCKVSNKALPAPIEKTISKAKGQPREPQVYTLPPCRDELTKNQVSLWCLVKGFYPSDIAVEWESNGQPENNYKTTPPVLDSDGSFFLYSKLTVDKSRWQQGNVFSCSVMHEALHNHYTQKSLSLSPTGGGGGSGGGGGSGGGGGSEVQLVESGGGLVQPGGSLRLSCAASGFTFNTYAMNWVRQAPGKCLEWVARIRSKYNNYATYYADSVKGRFTISRDDAKNTLYLQMSSLRAEDTAVYYCVRHGNFGNSYVSWFAYWGQGTLVTVKP
chain 2: DKTHTCPPCPAPGGPSVFLFPPKPKDTLMISRTPEVTCVVVDVSHEDPEVKFNWYVDGVEVHNAKTKPREEQYNSTYRVVSVLTVLHQDWLNGKEYKCKVSNKALPAPIEKTISKAKGQPREPQVCTLPPSRDELTKNQVSLSCAVKGFYPSDIAVEWESNGQPENNYKTTPPVLDSDGSFFLVSKLTVDKSRWQQGNVFSCSVMHEALHNRYTQKSLSLSPTGGGGGSGGGGGSGGGGGSQAVVTQEPSLTVSPGGTVTLTCGSSTGAVTTSNYANWVQQKPGQAFRGLIGGTNKRAPGVPARFSGSLLGGKAALTISGAQPEDEADYYCALWYSNHWVFGCGTKLEIKEVQLLESGGGEVQPGGSLRLSCAASGFSFSINAMGWYRQAPGKRREFVAAIESGRNTVYAESVKGRFTISRDNAKNTVYLQMSSLRAEDTAVYYCGLLKGNRVVSPSVAYWGQGTLVTVKP
notes: as for B3
On to B4, for which the binding result in experiment [2] is reported as “no binding (tested: about 67 nM)”; in experiment [3] it was “binds”.
